# According to the nanobody polyreactivity screen of Harvey et al. (2022):
# Experiment: yeast display, Sf9 membrane polyspecificity reagent, FACS + sequencing; frameworks hold sequencing errors
# In short: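 A synthetic nanobody library was expressed on Saccharomyces cerevisiae BJ5465 by galactose induction for 36–48 hours. The library was stained for 1 hour at 4 °C with 10% biotinylated, detergent-solubilized Sf9 membrane reagent and enriched with streptavidin microbeads before FACS. Low and high (top ~1%) gates were set on anti-HA fluorescence for expression and streptavidin fluorescence for reagent binding, and each polyreactivity label reflects the gate of origin.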
row,Sequence,polyreactivity (PSR sort gate)
1,QVQLVESGGGLVQAGGSLRLSCAASGSIFSFYAMGWSRQAPGKERELVASISYSGGTTFYADSVKGRFTISRDNAKNTVYLQMNSLKTEDTAVYYSAATCEPPQRGYVKDEFDYWGQVTQVTVSS,low polyreactivity
2,QVQLVESGGGLVQAGGSLRLSCAASGSIFSFYAMGWYRQAPGKERELVASITRRGGSTSYADSVKGRFTISRDNAKNTVYLQMNSLKPEDTAVYYCASESKFISVLRVGYYYVKFDYWGQGTQVTVSS,high polyreactivity
3,QVQLVESGGGLVQAGGSLRLSCAASGSIFSFYTMGWYRQAPGKERELVASISRSGGTTYYADSVKGRFTISRDNAKNTVYLQMNSLKPEDTAVYYCAVRQAKYGGAYYGYYYWGQGTQVTVSS,high polyreactivity
4,QVQLVESGGGLVQAGGSLRLSCAASGSIFSGYDMGWYRQAPGNERELVAVISWSTTSTYYADSVKGRFTISRDNAKNTVYLQMNSLKPEDTAVYYCNAEAYQYWEFDYWGQGSQVTVSS,low polyreactivity
5,QVQLVESGGGLVQAGGSLRLSCAASGSIFSGYMGWYRQAPGKDRELVATITSGGSTYADSVKGRFTISRDNAKNSVYLQMNILKPEDTAVYYCARPRPVIQYSGLHYDYWGQGTEVTVSS,low polyreactivity
6,QVQLVESGGGLVQAGGSLRLSCAASGSIFSGYTMGWYRQAPGKERELVAGISYRGGSTYYADSVKGRFTISRDNAKNTVYLQMNSLKPEDTAVYYCAARHSTLRGYWGQGTQVTVSS,high polyreactivity
7,QVQLVESGGGLVQAGGSLRLSCAASGSIFSGYVMGWYRQAPGKERELVAAITWSGGRTYYADSVKGRFTISRDNAKNTVYLQMNSLKPEDTAVYYCAKRKIKSSGYYYWGQGTQVTVSS,high polyreactivity
8,QVQLVESGGGLVQAGGSLRLSCAASGSIFSINTMGWYRQAPGKERELVAAITRSGSGTYYADSVKGRFTISRDNAKNTVYLQMNSLKPEDTAVYYCAKSTAVKPYAYRESGFIYDYWGQGTQVTVSS,low polyreactivity
9,QVQLVESGGGLVQAGGSLRLSCAASGSIFSINTMGWYRQAPRTERELVATITWSVGSTNYADSVKGRFTISRDNAKNSVYLQMNSLKPVDTAVYYCNAESFYDYNYWGEGTQVTVSS,low polyreactivity
10,QVQLVESGGGLVQAGGSLRLSCAASGSIFSIYAMGWYRQAPGKERDFVASITVTDGSTYYADSVKGRFTISRDIAKNTVYLQMNSLKPEDTAVYYCFADGWYALYEWLAVSGYYWGQGTQVTVST,low polyreactivity
11,QVQLVESGGGLVQAGGSLRLSCAASGSIFSKNAMGWYRQAPGKERELVAAITGGGSTYYADSVKGRFTISRDNAKNTVYLQMNSLKPEDTAVYYCAAEFYVWGQGTQVTVSS,low polyreactivity
12,QVQLVESGGGLVQAGGSLRLSCAASGSIFSKYAMGWYRQAPGKEREFVAAISRSGGRTYYADSVKGRFTISRDNAKNTVYLQMNSLKPEDTAVYYCAAYPYNPRRRTEGDYWGQGTQVTVSS,high polyreactivity
13,QVQLVESGGGLVQAGGSLRLSCAASGSIFSLNAMGWYRQAPGKERELVAAISGRGGSTYYADSVKGRFTISRDNAKNTVYLQMNSLKPEDTAVYYCAARFSRTFLGYYYWGQGTQVTVSS,high polyreactivity
14,QVQLVESGGGLVQAGGSLRLSCAASGSIFSLYAMGWYRQAPGKERELVAAITTSGGRTYYADSVKGRFTISRDNAKNTVYLQMNSLKPVDTAVYYCAKRYSTPYLTDNFLSGPGYYYWGQGTQVTVSS,high polyreactivity
15,QVQLVESGGGLVQAGGSLRLSCAASGSIFSNYAMGWYRQAPGKERELVAAISRSGGSTRYADSVKGRFTISRDNAKNTVYLQMNSLKPEDTAVYYCNAVRYPRLMYYWGQGTQVTVSS,high polyreactivity
16,QVQLVESGGGLVQAGGSLRLSCAASGSIFSPNAMGWYRQAPGKERELVASITNGGSTYYADSVKGRFTISRDNAKNTVYLQMNSLKPEDTAVYYCAADHNETGLRVKVYEYDYWGQGTQVTVSS,low polyreactivity
17,QVQLVESGGGLVQAGGSLRLSCAASGSIFSPYAMGWYRQAPGKERELVAAIRWGGGCTYADSVKGRFTISRDNAKNTVYLQMNSVIPEDSAVYYCAARRRSLRGYDYWGQGTQVTVSS,high polyreactivity
18,QVQLVESGGGLVQAGGSLRLSCAASGSIFSPYAMGWYRQAPGKQRELVAAISKTGGSTYYADSVKGRFTISRDNAKNTVYLQMNSLKPEDTAVYYCATQGPRWVRHFDYWGQGTQVTVSS,low polyreactivity
19,QVQLVESGGGLVQAGGSLRLSCAASGSIFSRNAMGWYRQAPGKERELVAAISYSSGSTYYADSVKGRFTLSRDNAKNTVYLQMNSLKPEDTAVYYCAADTTKLQGAEVDFWGQGTQVTVSS,low polyreactivity
20,QVQLVESGGGLVQAGGSLRLSCAASGSIFSRNDMGWYRLAPGKERELVAAITSDDTSTYYADSVNGRFTISRDNAKNTVYLQMNSLKPEDTAVYYCAADYGNPFDYWGQGTQVTVSS,low polyreactivity
21,QVQLVESGGGLVQAGGSLRLSCAASGSIFSRYAMGWYRQAPAKERELVAASSSRGGSTYYADSVKGRFTISRDNAKNTVYLQMNSLKTEDTAVYYCAAQAPDTPSLDEGDFWGQGTQVTVSS,high polyreactivity
22,QVQLVESGGGLVQAGGSLRLSCAASGSIFSRYAMGWYRQAPGKERELVAAINGRGSRTYYADSVKGRFTISRDNAKNTVYLQMNSLKPEDTAVYYCAAGRSRLYGPRYFIYKYNYWGQGTQVTVSS,high polyreactivity

row,Sequence,polyreactivity (PSR sort gate)
1,QVQLVESGGGLVQAGGSLRLSCAASGSIFSRYAMGWYRQAPGKERELVAAISQRAGSTYYADSVKGRFTISRDNAKNTVYLQMNSLKPEDTAVYYCAARRRGRKERGEDYWGQGTQVTVSS,high polyreactivity
2,QVQLVESGGGLVQAGGSLRLSCAASGSIFSRYAMGWYRQAPGKERELVAAISRGGSTNYADSVKGRFTISRDNAMNTVYLQMNSLKPEDTAVYYCAADGGKNPVRYDYWGQGTQVTVSS,high polyreactivity
3,QVQLVESGGGLVQAGGSLRLSCAASGSIFSRYAMGWYRQAPGKERELVAAISWRGGSTYYADSVKGRFTISRDNAKNTVYLQMTSLKPEDTAVYYCAAVYRGGPYYYWGQGTQVTVSS,high polyreactivity
4,QVQLVESGGGLVQAGGSLRLSCAASGSIFSRYAMGWYRQAPGKERELVAGISRGSSTYYADSVKGRFTISRDNAKNTVYLQMNSLKPEDTAVYYCARSGGSGGYYYWGQGTQVTVSS,low polyreactivity
5,QVQLVESGGGLVQAGGSLRLSCAASGSIFSRYAMGWYSQAPGKELELVAAISWRGGSTYYADSVKGRFTISRDNAKNTVYLQMNSLKPEDTAVYYCAVRDYRPYSRFDFWGQGTQVTVSS,high polyreactivity
6,QVQLVESGGGLVQAGGSLRLSCAASGSIFSRYTLGWYRQAPGKVRELVARINSSGTSTYYADSLKGRFTISRDKAKNTVYLQMNSLKPEDTAVYYCARTSRHVRYDYWGQGTQVTVSS,low polyreactivity
7,QVQLVESGGGLVQAGGSLRLSCAASGSIFSSNAMGWYRQAPGKERELGAAISRSACSTYYADSVKGRFTISRDNAKNTVYLQMNSLKPEDTAVYYCNAVTRLGTYDYWGQGTQVTVSS,high polyreactivity
8,QVQLVESGGGLVQAGGSLRLSCAASGSIFSSNAMGWYRQAPGKERELVASIDGGPTTYADSVKGRFTISRDNAKNTVYLQMNSLKPEDTAVYFCKAVYAFNGYDYWGQGTQVTVSS,low polyreactivity
9,QVQLVESGGGLVQAGGSLRLSCAASGSIFSSNAMGWYRQAPGKERELVASIRRGGSTYYADSVKGRFTISRDNAMNTVYLQMNSLKPEDTAVYDCARRYVPWYATYDHWGQGTQVTVSS,high polyreactivity
10,QVQLVESGGGLVQAGGSLRLSCAASGSIFSSNTMGWYRQAPGKERELVAAITSGGGTYYADSVKGRFTISRDNAKNTVYLQMNSLKPEDTAVYYCAAQRDYKSSPSYDYWGQGTQVNVSS,low polyreactivity
11,QVQLVESGGGLVQAGGSLRLSCAASGSIFSSYALGWYRQAPGKERELVAAISQSGGDTYYADSVKGRFTISRDNAKNTVYLQMNSLKPEDTAVYYCAADWAYYVASYLYYTFDYWGQGTQVTVSS,low polyreactivity
12,QVQLVESGGGLVQAGGSLRLSCAASGSIFSSYAMGWYRQAPGKERELVAGISRRGGSTYYADSVKGRFTISRDNAKNTVYLLMNSLKPEDTAVYYCNARYAGSDLDYWGQGTQVTVSS,high polyreactivity
13,QVQLVESGGGLVQAGGSLRLSCAASGSIFSSYAMGWYRQAPGKERELVAVITSGDSTNYADSVKGRFTISRDNAKNTVYLQMNSLKPEDTAVYYCNADSYGGSDRYDYWGQGTQVTVSS,low polyreactivity
14,QVQLVESGGGLVQAGGSLRLSCAASGSIFSTNAMGWYRQAPGKERELVAAITYSGSLTYYADSVKGRFTISRDNAKNTVYLQMNSLKPEDTAVYYCAADTSWYSWWFDYWGQGTQVTVSS,low polyreactivity
15,QVQLVESGGGLVQAGGSLRLSCAASGSIFSTYAMGGYRQAPGKERELVAAIRDSGDRTYYADSVKGRFTISRDNAKNTVYLQMNSLKPDDTAVYYCYARWQEPLKYDYWGQGTPVTVSS,low polyreactivity
16,QVQLVESGGGLVQAGGSLRLSCAASGSIFSTYAMGWYRQAPGKERELVAAISSSGSTYYADSVKGRFTLSRDNAKNTVYLQMNSLKPEDTAVYYCAAGKYRRTSRYRYDSWGQGTQVTVSS,high polyreactivity
17,QVQLVESGGGLVQAGGSLRLSCAASGSIFSVNAMGWYRQAPGKERELVAGITISGGRTYYADSVKGRFTISRDNAKNTVYLEMNSLKPEDTAVYYCAADWVYPPGLKDSVHFGEYDYWGQGTQVTVSS,low polyreactivity
18,QVQLVESGGGLVQAGGSLRLSCAASGSIFSVNTKGWYRQAPGKERELVATIRTGDSTNYADSVKGLFTISRDNAKNTVYLQMNSLKPEDTAFYYCAAEWSSLNFDYWGQGTQVTVSS,low polyreactivity
19,QVQLVESGGGLVQAGGSLRLSCAASGSIFSVYAMGWYRPAPGKERELVASITNDGSTNYADSVKGRFTISRDNAKNTVYLQMNSLKPEDTAVYYCNADSYTKLDYWGQGTQVTVSS,low polyreactivity
20,QVQLVESGGGLVQAGGSLRLSCAASGSIFSVYAMGWYRQAPGKERELVATITWSGGRTYYADSVKGRFTISRDNAKNTVYLQMNSLKPEDTAVYYCAATSWWATTGFDYWGQGTQVTVSS,low polyreactivity
21,QVQLVESGGGLVQAGGSLRLSCAASGSIFSVYAMGWYRQAPGKERELVATITWSGGRTYYADSVKGRYTISRDNAKNTVYLQMNSLKPEDTAVYYCAATSWWATTGFDYWGQGTQVTVSS,low polyreactivity
